For this data set, the target named is T1, Rv1019 (TetR family regulator) (UniProt P96381 1-197).
T1 sequence: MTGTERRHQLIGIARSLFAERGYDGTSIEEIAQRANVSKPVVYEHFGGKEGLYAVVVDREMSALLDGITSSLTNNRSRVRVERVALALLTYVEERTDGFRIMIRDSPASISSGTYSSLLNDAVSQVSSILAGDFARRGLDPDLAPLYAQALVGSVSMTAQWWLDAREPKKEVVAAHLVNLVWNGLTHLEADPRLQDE
In words: EMSA.

B1: MSMEG_1885 palindrome (MS_1886 PAL oligos) (dsDNA)
DNA 1: TAAGTTACGGTACCGTAGGTTG
DNA 2: CAACCTACGGTACCGTAACTTA
B1: the binding result was “binds”.

The values are drawn from paper doi:10.1101/2022.04.26.489556.
